Laboratory results taken from the supplement of paper PMC10724198.
± gives the standard deviation of the averaged measurements.

Key:
Saccharomyces cerevisiae [1] = test: protein stability index of tFT-peptide fusion (C-terminal peptide) (PSI (0-1 scale)); higher = more stable (slower turnover)
Protocol: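 MPS profiling in S. cerevisiae of the tFT-X12 degron library: putative degron peptides plus stable controls, 12 aa, fused to the C-terminus of a sfGFP-mCherry timer. Cells are FACS-sorted into 8 mCherry/sfGFP bins and deep-sequenced. PSI runs from 0 (unstable) to 1 (stable). Backgrounds are wild type, das1Δ and doa10Δ at 30 °C, and wild type, das1Δ, cdc34-1 and cdc53-1 at 37 °C; 2-3 technical replicates each.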

Saccharomyces cerevisiae [2] = test: as above; details: genetic background: wild type; temperature: 30 C
[3] = genetic background: cdc34-1, temperature: 37 C
[4] = genetic background: cdc53-1, temperature: 37 C
[5] = genetic background: das1 deletion, temperature: 30 C
[6] = genetic background: das1 deletion, temperature: 37 C
[7] = genetic background: doa10 deletion, temperature: 30 C
[8] = genetic background: wild type, temperature: 30 C
[9] = genetic background: wild type, temperature: 37 C
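Further: PSI is a weighted mean of sequencing reads over stability bins, variants kept only with over 10 reads, mCherry proximal and sfGFP distal, peptide attached via GGGS linker.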

| Sequence | protein stability index (Saccharomyces cerevisiae [1]; [3]) | protein stability index (Saccharomyces cerevisiae [1]; [4]) | protein stability index (Saccharomyces cerevisiae [1]; [5]) | protein stability index (Saccharomyces cerevisiae [1]; [6]) | protein stability index (Saccharomyces cerevisiae [1]; [7]) | protein stability index (Saccharomyces cerevisiae [1]; [8]) | protein stability index (Saccharomyces cerevisiae [1]; [9]) | protein stability index (Saccharomyces cerevisiae [2]) |
| --- | --- | --- | --- | --- | --- | --- | --- | --- |
| EVGFHRRWVALS | 0.612 ± 0.052 | 0.7235 ± 0.007 | 0.65 ± 0.015 | 0.737 ± 0.019 | 0.114 ± 0.02 | 0.141 ± 0.016 | 0.275 ± 0.053 | 0.189 ± 0.0082 |
| GSLLNLSLRWLV | 0.626 ± 0.012 | 0.7289 ± 0.0067 | 0.6638 ± 0.0066 | 0.739 ± 0.0077 | 0.13932 ± 9.1e-05 | 0.138 ± 0.022 | 0.226 ± 0.0075 | 0.242 ± 0.0062 |
| VIYYVRVGLVLS | 0.0324 ± 0.0007 | 0.115 ± 0.053 | 0.119 ± 0.03 | 0.167 ± 0.0084 | 0.108 ± 0.016 | 0.117 ± 0.045 | 0.126 ± 0.016 | 0.203 ± 0.025 |
| GLFLYCCLVSLL | 0.192 ± 0.031 | 0.321 ± 0.0044 | 0.25 ± 0.025 | 0.413 ± 0.018 | 0.191 ± 0.00083 | 0.193 ± 0.019 | 0.33 ± 0.0091 | 0.283 ± 0.011 |
| LAVVLVWVPGRW | 0.443 ± 0.037 | 0.526 ± 0.057 | 0.335 ± 0.032 | 0.563 ± 0.019 | 0.311 ± 0.0059 | 0.347 ± 0.023 | 0.561 ± 0.05 | 0.418 ± 0.026 |
| RVFVGLVDFLFW | 0.437 ± 0.033 | 0.553 ± 0.073 | 0.402 ± 0.025 | 0.6062 ± 0.0026 | 0.37 ± 0.019 | 0.394 ± 0.033 | 0.57 ± 0.035 | 0.471 ± 0.072 |
| RWGLFIGIVIGF | 0.146 ± 0.0085 | 0.211 ± 0.003 | 0.219 ± 0.037 | 0.338 ± 0.0087 | 0.235 ± 0.014 | 0.217 ± 0.024 | 0.317 ± 0.025 | 0.337 ± 0.021 |
| WISVRIFISCFF | 0.177 ± 0.0059 | 0.269 ± 0.02 | 0.191 ± 0.024 | 0.318 ± 0.0052 | 0.192 ± 0.0026 | 0.191 ± 0.035 | 0.271 ± 0.0047 | 0.267 ± 0.022 |
| KKKEIIKIIKIN | 0.311 ± 0.033 | 0.643 ± 0.044 | 0.697 ± 0.065 | 0.72 ± 0.048 | 0.0624 ± 0.022 | 0.0729 ± 0.034 | 0.0954 ± 0.039 | 0.127 ± 0.013 |
| LIMIRLLYLRLI | 0.166 ± 0.15 | 0.153 ± 0.042 | 0.269 ± 0.029 | 0.365 ± 0.022 | 0.105 ± 0.017 | 0.0628 ± 0.033 | 0.102 ± 0.0037 | 0.102 ± 0.035 |
| FFFFSMFSFFIP | 0.503 ± 0.056 | 0.576 ± 0.0068 | 0.485 ± 0.017 | 0.564 ± 0.013 | 0.438 ± 0.013 | 0.466 ± 0.031 | 0.531 ± 0.0034 | 0.477 ± 0.054 |
| FILATGKGRWVV | 0.686 ± 0.044 | 0.776 ± 0.017 | 0.636 ± 0.0087 | 0.7432 ± 0.0033 | 0.266 ± 0.0031 | 0.306 ± 0.029 | 0.532 ± 0.024 | 0.333 ± 0.1 |
| FGFFRLVIVCFR | 0.135 ± 0.046 | 0.19 ± 0.021 | 0.175 ± 0.032 | 0.313 ± 0.0089 | 0.176 ± 0.017 | 0.172 ± 0.019 | 0.283 ± 0.013 | 0.31 ± 0.16 |
| SVPRTRAPRLIS | 0.646 ± 0.027 | 0.73 ± 0.034 | 0.658 ± 0.025 | 0.71911 ± 0.00014 | 0.184 ± 0.0079 | 0.213 ± 0.024 | 0.4611 ± 0.00082 | 0.384 ± 0.041 |
| WSISFGLLVCWV | 0.27 ± 0.045 | 0.322 ± 0.0049 | 0.199 ± 0.019 | 0.42 ± 0.013 | 0.154 ± 0.012 | 0.191 ± 0.016 | 0.379 ± 0.066 | 0.233 ± 0.039 |
| FFFVLVSGWWGV | 0.181 ± 0.0054 | 0.344 ± 0.059 | 0.237 ± 0.027 | 0.472 ± 0.044 | 0.205 ± 0.022 | 0.221 ± 0.021 | 0.374 ± 0.013 | 0.36 ± 0.041 |
| VLLSSSLVFLIS | 0.597 ± 0.022 | 0.6439 ± 0.0011 | 0.522 ± 0.016 | 0.631 ± 0.018 | 0.385 ± 0.016 | 0.416 ± 0.02 | 0.575 ± 0.0085 | 0.462 ± 0.044 |
| VSVVLKTQRVVC | 0.595 ± 0.026 | 0.607 ± 0.008 | 0.432 ± 0.039 | 0.60289 ± 0.00044 | 0.3 ± 0.0041 | 0.346 ± 0.033 | 0.535 ± 0.01 | 0.4809 ± 0.0012 |
| LYSVLWFCFPLV | 0.586 ± 0.039 | 0.5638 ± 0.0037 | 0.446 ± 0.025 | 0.577 ± 0.0076 | 0.442 ± 0.035 | 0.42 ± 0.024 | 0.55 ± 0.01 | 0.466 ± 0.028 |
| LAFMYFVCPRLA | 0.598 ± 0.045 | 0.645 ± 0.0077 | 0.56 ± 0.02 | 0.6511 ± 0.0057 | 0.245 ± 0.0083 | 0.269 ± 0.031 | 0.464 ± 0.022 | 0.369 ± 0.0057 |

| Sequence | protein stability index (Saccharomyces cerevisiae [1]; [3]) | protein stability index (Saccharomyces cerevisiae [1]; [4]) | protein stability index (Saccharomyces cerevisiae [1]; [5]) | protein stability index (Saccharomyces cerevisiae [1]; [6]) | protein stability index (Saccharomyces cerevisiae [1]; [7]) | protein stability index (Saccharomyces cerevisiae [1]; [8]) | protein stability index (Saccharomyces cerevisiae [1]; [9]) | protein stability index (Saccharomyces cerevisiae [2]) |
| --- | --- | --- | --- | --- | --- | --- | --- | --- |
| LLFGCLIRIGCS | 0.268 ± 0.017 | 0.307 ± 0.012 | 0.244 ± 0.048 | 0.403 ± 0.021 | 0.225 ± 0.0046 | 0.253 ± 0.03 | 0.3638 ± 0.00063 | 0.35 ± 0.051 |
| TKGIIKKINIIM | 0.624 ± 0.14 | 0.73 ± 0.039 | 0.617 ± 0.016 | 0.724 ± 0.0084 | 0.154 ± 0.0088 | 0.206 ± 0.035 | 0.467 ± 0.09 | 0.36 ± 0.014 |
| FGFWGVVSCCNA | 0.559 ± 0.045 | 0.566 ± 0.03 | 0.472 ± 0.02 | 0.599 ± 0.0011 | 0.459 ± 0.01 | 0.477 ± 0.011 | 0.5833 ± 0.0054 | 0.63 ± 0.18 |
| VLGPRFCFVCHA | 0.555 ± 0.067 | 0.604 ± 0.03 | 0.444 ± 0.039 | 0.6194 ± 0.0023 | 0.223 ± 0.0071 | 0.253 ± 0.033 | 0.4594 ± 0.003 | 0.3455 ± 0.0025 |
| GLVVWWLSGWLW | 0.249 ± 0.034 | 0.435 ± 0.05 | 0.269 ± 0.023 | 0.428 ± 0.0078 | 0.221 ± 0.026 | 0.276 ± 0.025 | 0.425 ± 0.048 | 0.373 ± 0.0071 |
| LWFFVGFAVYGG | 0.302 ± 0.0084 | 0.438 ± 0.018 | 0.346 ± 0.036 | 0.513 ± 0.019 | 0.306 ± 0.012 | 0.371 ± 0.0059 | 0.497 ± 0.058 | 0.455 ± 0.0066 |
| FFSFTVLVSYGF | 0.18 ± 0.011 | 0.256 ± 0.015 | 0.192 ± 0.025 | 0.34 ± 0.0067 | 0.186 ± 0.0095 | 0.187 ± 0.023 | 0.284 ± 0.0081 | 0.352 ± 0.017 |
| VVVHFVLVCSTS | 0.0899 ± 0.0074 | 0.237 ± 0.057 | 0.141 ± 0.026 | 0.284 ± 0.0084 | 0.116 ± 0.011 | 0.13 ± 0.024 | 0.271 ± 0.014 | 0.289 ± 0.038 |
| DVVVIFGILCYC | 0.0711 ± 0.0034 | 0.16 ± 0.0049 | 0.156 ± 0.045 | 0.3173 ± 0.0014 | 0.125 ± 0.014 | 0.15 ± 0.032 | 0.263 ± 0.0032 | 0.267 ± 0.013 |
| AFCGRRGHQFYN | 0.61 ± 0.0073 | 0.743 ± 0.016 | 0.648 ± 0.018 | 0.746 ± 0.037 | 0.144 ± 0.0093 | 0.164 ± 0.014 | 0.42 ± 0.027 | 0.263 ± 0.061 |
| YFFFPILCFCFF | 0.439 ± 0.03 | 0.43 ± 0.012 | 0.38 ± 0.028 | 0.479 ± 0.0088 | 0.429 ± 0.028 | 0.381 ± 0.018 | 0.437 ± 0.0084 | 0.419 ± 0.047 |
| LLLALLFWPCPI | 0.5178 ± 0.0016 | 0.526 ± 0.0074 | 0.402 ± 0.028 | 0.559 ± 0.037 | 0.396 ± 0.024 | 0.39 ± 0.038 | 0.518 ± 0.021 | 0.473 ± 0.02 |
| FLCLFFLAVIKL | 0.241 ± 0.018 | 0.188 ± 0.012 | 0.344 ± 0.034 | 0.412 ± 0.031 | 0.502 ± 0.007 | 0.309 ± 0.037 | 0.356 ± 0.013 | 0.383 ± 0.028 |
| RDYIAAKLVVCG | 0.4103 ± 0.0032 | 0.425 ± 0.029 | 0.304 ± 0.03 | 0.488 ± 0.0021 | 0.267 ± 0.0034 | 0.318 ± 0.027 | 0.4612 ± 0.0016 | 0.35 ± 0.091 |
| GCGFSFFHIVVL | 0.111 ± 0.0053 | 0.113 ± 0.0037 | 0.147 ± 0.04 | 0.256 ± 0.024 | 0.416 ± 0.0071 | 0.152 ± 0.022 | 0.225 ± 0.0047 | 0.121 ± 0.0051 |
| VIQNKKKNKITS | 0.599 ± 0.048 | 0.6883 ± 0.0049 | 0.642 ± 0.013 | 0.736 ± 0.0094 | 0.177 ± 0.021 | 0.168 ± 0.015 | 0.284 ± 0.018 | 0.372 ± 0.027 |
| LCVVVICCLMAR | 0.097 ± 0.025 | 0.198 ± 0.055 | 0.123 ± 0.036 | 0.265 ± 0.0071 | 0.0806 ± 0.015 | 0.125 ± 0.026 | 0.216 ± 0.012 | 0.279 ± 0.05 |
| PFPTPPPIPRSP | 0.665 ± 0.012 | 0.7375 ± 0.0026 | 0.686 ± 0.015 | 0.729 ± 0.0085 | 0.706 ± 0.035 | 0.696 ± 0.012 | 0.7051 ± 0.0068 | 0.464 ± 0.05 |
| RKQLSCIMIWCK | 0.361 ± 0.013 | 0.405 ± 0.012 | 0.204 ± 0.027 | 0.431 ± 0.0082 | 0.188 ± 0.0052 | 0.204 ± 0.015 | 0.40377 ± 0.00039 | 0.298 ± 0.011 |
